The target of assay [1] is T1, circularly permuted human TfR apical domain (human).
T1 construct: TfR residues 326-379 stand N-terminal to 194-296, loop 297-325 deleted; also called huTfR Apical Domain
T1 chain: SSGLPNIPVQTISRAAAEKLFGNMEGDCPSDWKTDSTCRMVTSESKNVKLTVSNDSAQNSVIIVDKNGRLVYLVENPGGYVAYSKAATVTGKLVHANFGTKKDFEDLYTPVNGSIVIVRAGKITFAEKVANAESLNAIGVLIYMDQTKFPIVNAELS
Briefly: SPR, supernatant, anti-Fab capture. The protocol: (§1) Clones were expressed in HEK293 cells. Supernatants were captured for SPR by GE Healthcare anti-human Fab capture kit and the affinity to human and cyno TfR apical domain was measured (Table 30). The clones in Table 30 were bivalent and each TfR-binding Fc polypeptide also contained P329G and LALA mutations.

The target in assay [2] is T2, circularly permuted cyno TfR apical domain (cynomolgus monkey).
T2 construct: same design as the human construct; also called cyTfR Apical Domain; cynomolgus TfR apical domain
T2 chain: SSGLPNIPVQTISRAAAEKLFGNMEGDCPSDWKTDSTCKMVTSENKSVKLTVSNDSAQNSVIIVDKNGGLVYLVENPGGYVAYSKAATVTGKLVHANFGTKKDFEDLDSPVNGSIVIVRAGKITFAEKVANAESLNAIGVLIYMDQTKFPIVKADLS
Briefly: SPR, supernatant, anti-Fab capture. The protocol:
as §1
Background: In SPR one partner is held on a chip, and binding of the other changes the refractive index at the surface.

This note sets out measurements from patent US20250145729A1 (DENALI THERAPEUTICS, published 2025).

B1: 42.8.187 (Fc fusion)
chain: APEAAGGPSVFLFPPKPKDTLMISRTPEVTCVVVDVSHEDPEVKFNWYVDGVEVHNAKTKPREEQYNSTYRVVSVLTVLHQDWLNGKEYKCKVSNKALGAPIEKTISKAKGQPREPQVYTLPPSRDELTKNQVSLTCLVKGFYPSDIAVEWFYEGSKENNYKTTPPVLDSDGSFFLYSKLTVDKSRWQQGNLFACEVMHEALHNHYTYKLLSLSPGK
notes: bivalent; P329G+LALA
On to B1, for which the figures for the Kd in assay [1] and in assay [2] were 1600 nM and 13.4 µM, respectively.

B2: 42.8.197 (Fc fusion)
chain: APEAAGGPSVFLFPPKPKDTLMISRTPEVTCVVVDVSHEDPEVKFNWYVDGVEVHNAKTKPREEQYNSTYRVVSVLTVLHQDWLNGKEYKCKVSNKALGAPIEKTISKAKGQPREPQVYTLPPSRDELTKNQVSLTCLVKGFYPSDIAVEWFYEAQKLTNYKTTPPVLDSDGSFFLYSKLTVDKSRWQQGNLFACEVMHEALHNHYTYKLLSLSPGK
notes: bivalent; P329G+LALA
For the molecule B2, the Kd – broadly, the equilibrium constant for the complex coming apart – was found to be 755 nM in assay [1] and 11.4 µM in assay [2].

B3: 42.8.192 (Fc fusion)
chain: APEAAGGPSVFLFPPKPKDTLMISRTPEVTCVVVDVSHEDPEVKFNWYVDGVEVHNAKTKPREEQYNSTYRVVSVLTVLHQDWLNGKEYKCKVSNKALGAPIEKTISKAKGQPREPQVYTLPPSRDELTKNQVSLTCLVKGFYPSDIAVEWFYEGSKLSNYKTTPPVLDSDGSFFLYSKLTVDKSRWQQGNLFACEVMHEALHNHYTYKLLSLSPGK
notes: bivalent; P329G+LALA
With B3, the dissociation constant Kd is 761 nM in assay [1] and 11.3 µM in assay [2].

B4: 42.8.207 (Fc fusion)
chain: APEAAGGPSVFLFPPKPKDTLMISRTPEVTCVVVDVSHEDPEVKFNWYVDGVEVHNAKTKPREEQYNSTYRVVSVLTVLHQDWLNGKEYKCKVSNKALGAPIEKTISKAKGQPREPQVYTLPPSRDELTKNQVSLTCLVKGFYPSDIAVEWFYEDQKESNYKTTPPVLDSDGSFFLYSKLTVDKSRWQQGNLFACEVMHEALHNHYTYKLLSLSPGK
notes: bivalent; P329G+LALA
For B4, the dissociation constant (Kd) was 1200 nM in assay [1] and 13.8 µM in assay [2].

B5: 42.8.213 (Fc fusion)
chain: APEAAGGPSVFLFPPKPKDTLMISRTPEVTCVVVDVSHEDPEVKFNWYVDGVEVHNAKTKPREEQYNSTYRVVSVLTVLHQDWLNGKEYKCKVSNKALGAPIEKTISKAKGQPREPQVYTLPPSRDELTKNQVSLTCLVKGFYPSDIAVEWFYEDSKESNYKTTPPVLDSDGSFFLYSKLTVDKSRWQQGNLFACEVMHEALHNHYTYKLLSLSPGK
notes: bivalent; P329G+LALA
Regarding B5, the Kd in assay [1] came to 872 nM; in assay [2] it was 9.79 µM.

B6: 42.8.210 (Fc fusion)
chain: APEAAGGPSVFLFPPKPKDTLMISRTPEVTCVVVDVSHEDPEVKFNWYVDGVEVHNAKTKPREEQYNSTYRVVSVLTVLHQDWLNGKEYKCKVSNKALGAPIEKTISKAKGQPREPQVYTLPPSRDELTKNQVSLTCLVKGFYPSDIAVEWFYEDQKLSNYKTTPPVLDSDGSFFLYSKLTVDKSRWQQGNLFACEVMHEALHNHYTYKLLSLSPGK
notes: bivalent; P329G+LALA
In the case of B6, the dissociation constant Kd in assay [1] came to 596 nM; in assay [2], 7.88 µM.

B7: 42.8.189 (Fc fusion)
chain: APEAAGGPSVFLFPPKPKDTLMISRTPEVTCVVVDVSHEDPEVKFNWYVDGVEVHNAKTKPREEQYNSTYRVVSVLTVLHQDWLNGKEYKCKVSNKALGAPIEKTISKAKGQPREPQVYTLPPSRDELTKNQVSLTCLVKGFYPSDIAVEWFYEGSKESNYKTTPPVLDSDGSFFLYSKLTVDKSRWQQGNLFACEVMHEALHNHYTYKLLSLSPGK
notes: bivalent; P329G+LALA
As to B7, the equilibrium dissociation constant (Kd) in assay [1] worked out at 1100 nM; in assay [2] it was 13.5 µM.

B8: 42.8.204 (Fc fusion)
chain: APEAAGGPSVFLFPPKPKDTLMISRTPEVTCVVVDVSHEDPEVKFNWYVDGVEVHNAKTKPREEQYNSTYRVVSVLTVLHQDWLNGKEYKCKVSNKALGAPIEKTISKAKGQPREPQVYTLPPSRDELTKNQVSLTCLVKGFYPSDIAVEWFYEASKLSNYKTTPPVLDSDGSFFLYSKLTVDKSRWQQGNLFACEVMHEALHNHYTYKLLSLSPGK
notes: bivalent; P329G+LALA
Turning to B8, the dissociation constant (Kd) in assay [1] is 436 nM; in assay [2], 4.63 µM.

B9: 42.8.202 (Fc fusion)
chain: APEAAGGPSVFLFPPKPKDTLMISRTPEVTCVVVDVSHEDPEVKFNWYVDGVEVHNAKTKPREEQYNSTYRVVSVLTVLHQDWLNGKEYKCKVSNKALGAPIEKTISKAKGQPREPQVYTLPPSRDELTKNQVSLTCLVKGFYPSDIAVEWFYEASKLNNYKTTPPVLDSDGSFFLYSKLTVDKSRWQQGNLFACEVMHEALHNHYTYKLLSLSPGK
notes: bivalent; P329G+LALA
For B9, the equilibrium dissociation constant (Kd) in assay [1] is 505 nM; in assay [2] it was 6.27 µM.

B10: 42.8.201 (Fc fusion)
chain: APEAAGGPSVFLFPPKPKDTLMISRTPEVTCVVVDVSHEDPEVKFNWYVDGVEVHNAKTKPREEQYNSTYRVVSVLTVLHQDWLNGKEYKCKVSNKALGAPIEKTISKAKGQPREPQVYTLPPSRDELTKNQVSLTCLVKGFYPSDIAVEWFYEASKESNYKTTPPVLDSDGSFFLYSKLTVDKSRWQQGNLFACEVMHEALHNHYTYKLLSLSPGK
notes: bivalent; P329G+LALA
Consider B10, for which the dissociation constant Kd in assay [1] was found to be 647 nM; in assay [2], 4.91 µM.

B11: 42.8.208 (Fc fusion)
chain: APEAAGGPSVFLFPPKPKDTLMISRTPEVTCVVVDVSHEDPEVKFNWYVDGVEVHNAKTKPREEQYNSTYRVVSVLTVLHQDWLNGKEYKCKVSNKALGAPIEKTISKAKGQPREPQVYTLPPSRDELTKNQVSLTCLVKGFYPSDIAVEWFYEDQKLNNYKTTPPVLDSDGSFFLYSKLTVDKSRWQQGNLFACEVMHEALHNHYTYKLLSLSPGK
notes: bivalent; P329G+LALA
As for B11, the equilibrium dissociation constant (Kd) in assay [1] worked out at 446 nM; in assay [2], 7.41 µM.

B12: 42.8.199 (Fc fusion)
chain: APEAAGGPSVFLFPPKPKDTLMISRTPEVTCVVVDVSHEDPEVKFNWYVDGVEVHNAKTKPREEQYNSTYRVVSVLTVLHQDWLNGKEYKCKVSNKALGAPIEKTISKAKGQPREPQVYTLPPSRDELTKNQVSLTCLVKGFYPSDIAVEWFYEASKENNYKTTPPVLDSDGSFFLYSKLTVDKSRWQQGNLFACEVMHEALHNHYTYKLLSLSPGK
notes: bivalent; P329G+LALA
As for B12, the Kd in assay [1] is 869 nM; in assay [2] it was 8.05 µM.

B13: 42.8.194 (Fc fusion)
chain: APEAAGGPSVFLFPPKPKDTLMISRTPEVTCVVVDVSHEDPEVKFNWYVDGVEVHNAKTKPREEQYNSTYRVVSVLTVLHQDWLNGKEYKCKVSNKALGAPIEKTISKAKGQPREPQVYTLPPSRDELTKNQVSLTCLVKGFYPSDIAVEWFYEAQKETNYKTTPPVLDSDGSFFLYSKLTVDKSRWQQGNLFACEVMHEALHNHYTYKLLSLSPGK
notes: bivalent; P329G+LALA
B13: the dissociation constant (Kd) came out at 1230 nM in assay [1] and 11.8 µM in assay [2].

B14: 42.8.195 (Fc fusion)
chain: APEAAGGPSVFLFPPKPKDTLMISRTPEVTCVVVDVSHEDPEVKFNWYVDGVEVHNAKTKPREEQYNSTYRVVSVLTVLHQDWLNGKEYKCKVSNKALGAPIEKTISKAKGQPREPQVYTLPPSRDELTKNQVSLTCLVKGFYPSDIAVEWFYEAQKESNYKTTPPVLDSDGSFFLYSKLTVDKSRWQQGNLFACEVMHEALHNHYTYKLLSLSPGK
notes: bivalent; P329G+LALA
Regarding B14, the dissociation constant (Kd) in assay [1] was 1230 nM; in assay [2], 13.3 µM.

B15: 42.8.212 (Fc fusion)
chain: APEAAGGPSVFLFPPKPKDTLMISRTPEVTCVVVDVSHEDPEVKFNWYVDGVEVHNAKTKPREEQYNSTYRVVSVLTVLHQDWLNGKEYKCKVSNKALGAPIEKTISKAKGQPREPQVYTLPPSRDELTKNQVSLTCLVKGFYPSDIAVEWFYEDSKETNYKTTPPVLDSDGSFFLYSKLTVDKSRWQQGNLFACEVMHEALHNHYTYKLLSLSPGK
notes: bivalent; P329G+LALA
On to B15, for which the Kd is 620 nM in assay [1] and 9.37 µM in assay [2].
